This data set addresses T1, TRBP WT (nonphosphorylated) (UniProt Q15633 1-366).
T1 sequence: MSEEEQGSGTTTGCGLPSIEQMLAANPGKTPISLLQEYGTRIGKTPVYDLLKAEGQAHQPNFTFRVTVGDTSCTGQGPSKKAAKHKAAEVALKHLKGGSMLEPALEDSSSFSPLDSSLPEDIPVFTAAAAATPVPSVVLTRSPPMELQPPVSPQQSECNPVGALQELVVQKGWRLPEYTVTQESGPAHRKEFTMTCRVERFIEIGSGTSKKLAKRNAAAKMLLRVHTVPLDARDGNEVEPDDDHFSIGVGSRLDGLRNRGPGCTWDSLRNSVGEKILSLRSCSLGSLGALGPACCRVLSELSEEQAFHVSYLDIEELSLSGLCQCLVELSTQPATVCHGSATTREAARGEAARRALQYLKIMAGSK
As to the kind of experiment: EMSA; 20 mM HEPES pH 7.5, 150 mM NaCl, 1.5 mM MgCl2, 2 mM DTT, 30 C, 30 min; dsRNA 60 nM, TRBP 0-400 pmol; 5% acrylamide gel. As to conditions: protein: recombinant; label: none (SYBR Gold stain); blunt.

B1: TMEV 45-mer dsRNA (dsRNA)
RNA 1: UUACUAUUGACACUAUGGCUUGCAAACAUGGAUACCCAGAUGUGU
RNA 2: ACACAUCUGGGUAUCCAUGUUUGCAAGCCAUAGUGUCAAUAGUAA
B1: the binding result is on record as “binds”.
